Data reported in the supplement of paper PMC11246515.
± gives the standard deviation of the averaged measurements.

Experiment: total protein half-life in vivo (active degradation + dilution); higher = more stable protein
[1] = E. coli NCM3722 delta-clpP, growth: N-lim chemostat, doubling time 6 h
[2] = E. coli NCM3722 delta-hslV, growth: N-lim chemostat, doubling time 6 h
[3] = E. coli NCM3722 delta-lon, growth: N-lim chemostat, doubling time 6 h
[4] = E. coli NCM3722 delta-smpB, growth: N-lim chemostat, doubling time 6 h
[5] = wild type E. coli NCM3722, growth: N-lim chemostat, doubling time 6 h
[6] = wild type E. coli NCM3722, growth: P-lim chemostat, doubling time 12 h
[7] = wild type E. coli NCM3722, growth: C-lim chemostat, doubling time 6 h
[8] = wild type E. coli NCM3722, growth: C-lim chemostat, doubling time 12 h
[9] = wild type E. coli NCM3722, growth: N-lim chemostat, doubling time 12 h
[10] = wild type E. coli NCM3722, growth: C-lim chemostat, doubling time 3 h
[11] = E. coli NCM3722 delta-clpP delta-lon delta-hslV, growth: N-lim chemostat, doubling time 6 h
[12] = wild type E. coli NCM3722, growth: P-lim chemostat, doubling time 6 h

Row | Sequence | total protein half-life in vivo [1] [h] | total protein half-life in vivo [2] [h] | total protein half-life in vivo [3] [h] | total protein half-life in vivo [4] [h] | total protein half-life in vivo [5] [h] | total protein half-life in vivo [6] [h] | total protein half-life in vivo [7] [h] | total protein half-life in vivo [8] [h] | total protein half-life in vivo [9] [h] | total protein half-life in vivo [10] [h] | total protein half-life in vivo [11] [h] | total protein half-life in vivo [12] [h]
1 | MLMLFLTVAMVHIVALMSPGPDFFFVSQTAVSRSRKEAMMGVLGITCGVMVWAGIALLGLHLIIEKMAWLHTLIMVGGGLYLCWMGYQMLRGALKKEAVSAPAPQVELAKSGRSFLKGLLTNLANPKAIIYFGSVFSLFVGDNVGTTARWGIFALIIVETLAWFTVVASLFALPQMRRGYQRLAKWIDGFAGALFAGFGIHLIISR [P0AG38] | 1.14 | 0.979 | 0.822 | 1.13 ± 0.1 | 1.13 | 2.22 ± 0.65 | – | – | – | – | – | –
2 | MANGWTGNILRVNLTTGNITLEDSSKFKSFVGGMGFGYKIMYDEVPPGTKPFDEANKLVFATGPLTGSGAPCSSRVNITSLSTFTKGNLVVDAHMGGFFAAQMKFAGYDVIIIEGKAKSPVWLKIKDDKVSLEKADFLWGKGTRATTEEICRLTSPETCVAAIGQAGENLVPLSGMLNSRNHSGGAGTGAIMGSKNLKAIAVEGTKGVNIADRQEMKRLNDYMMTELIGANNNHVVPSTPQSWAEYSDPKSRWTARKGLFWGAAEGGPIETGEIPPGNQNTVGFRTYKSVFDLGPAAEKYTVKMSGCHSCPIRCMTQMNIPRVKEFGVPSTGGNTCVANFVHTTIFPNGPKDFEDKDDGRVIGNLVGLNLFDDYGLWCNYGQLHRDFTYCYSKGVFKRVLPAEEYAEIRWDQLEAGDVNFIKDFYYRLAHRVGELSHLADGSYAIAERWNLGEEYWGYAKNKLWSPFGYPVHHANEASAQVGSIVNCMFNRDCMTHTHINFIGSGLPLKLQREVAKELFGSEDAYDETKNYTPINDAKIKYAKWSLLRVCLHNAVTLCNWVWPMTVSPLKSRNYRGDLALEAKFFKAITGEEMTQEKLDLAAERIFTLHRAYTVKLMQTKDMRNEHDLICSWVFDKDPQIPVFTEGTDKMDRDDMHASLTMFYKEMGWDPQLGCPTRETLQRLGLEDIAADLAAHNLLPA | – | – | – | – | – | – | 5.09 | 10.2 ± 4.6 | 7.93 ± 1.3 | – | – | –
3 | MRGKKRIGLLFLLIAVVVGGGGLLLAQKVLHKTSDTAFCLSCHSMSKPFEEYQGTVHFSNQKGIRAECADCHIPKSGMDYLFAKLKASKDIYHEFVSGKIDSDDKFEAHRQEMAETVWKELKATDSATCRSCHSFDAMDIASQSESAQKMHNKAQKDSETCIDCHKGIAHFPPEIKMDDNAAHELESQAATSVTNGAHIYPFKTSHIGELATVNPGTDLTVVDASGKQPIVLLQGYQMQGSENTLYLAAGQRLALATLSEEGIKALTVNGEWQADEYGNQWRQASLQGALTDPALADRKPLWQYAEKLDDTYCAGCHAPIAADHYTVNAWPSIAKGMGARTSMSENELDILTRYFQYNAKDITEKQ | – | – | – | – | – | – | 4.09 | 8.13 ± 1.1 | – | 2.33 | – | –
4 | MDSLNLNKHISGQFNAELESIRTQVMTMGGMVEQQLSDAITAMHNQDSDLAKRVIEGDKNVNMMEVAIDEACVRIIAKRQPTASDLRLVMVISKTIAELERIGDVADKICRTALEKFSQQHQPLLVSLESLGRHTIQMLHDVLDAFARMDIDEAVRIYREDKKVDQEYEGIVRQLMTYMMEDSRTIPSVLTALFCARSIERIGDRCQNICEFIFYYVKGQDFRHVGGDELDKLLAGKDSDK [P0A9K7] | 4.64 ± 0.5 | 4.2 ± 0.34 | 4.81 ± 0.26 | 4.01 ± 0.1 | 4.09 ± 0.23 | 10.8 ± 0.029 | 5.04 ± 0.29 | 9.47 ± 0.65 | 6.41 ± 0.26 | 2.88 ± 0.12 | 4.61 ± 0.4 | 5.17 ± 0.13
5 | MKKYQQLAEQLREQIASGIWQPGDRLPSLRDQVALSGMSFMTVSHAYQLLESQGYIIARPQSGYYVAPQAIKMPKAPVIPVTRDEAVDINTYIFDMLQASRDPSVVPFASAFPDPRLFPLQQLNRSLAQVSKTATAMSVIENLPPGNAELRQAIARRYALQGITISPDEIVITAGALEALNLSLQAVTEPGDWVIVENPCFYGALQALERLRLKALSVATDVKEGIDLQALELALQEYPVKACWLMTNSQNPLGFTLTPQKKAQLVALLNQYNVTLIEDDVYSELYFGREKPLPAKAWDRHDGVLHCSSFSKCLVPGFRIGWVAAGKHARKIQRLQLMSTLSTSSPMQLALVDYLSTRRYDAHLRRLRRQLAERKQRAWQALLRYLPAEVKIHHNDSGYFLWLELPEPLDAGELSLAALTHHISIAPGKMFSTGENWSRFFRFNTAWQWGEREEQAVKQLGKLIQERL | 6.15 ± 0.15 | 6.01 ± 0.29 | 6.09 ± 0.51 | 5.54 ± 0.38 | 5.45 ± 0.55 | 14.3 ± 2.1 | 5.42 ± 0.59 | 10.5 ± 0.68 | 13.1 ± 2.8 | 3.02 ± 0.075 | 5.76 ± 0.15 | 6.52 ± 0.27
6 | MDIISVALKRHSTKAFDASKKLTPEQAEQIKTLLQYSPSSTNSQPWHFIVASTEEGKARVAKSAAGNYVFNERKMLDASHVVVFCAKTAMDDVWLKLVVDQEDADGRFATPEAKAANDKGRKFFADMHRKDLHDDAEWMAKQVYLNVGNFLLGVAALGLDAVPIEGFDAAILDAEFGLKEKGYTSLVVVPVGHHSVEDFNATLPKSRLPQNITLTEV | 1.66 ± 0.42 | 1.405 ± 0.01 | 2.01 ± 0.14 | 1.62 ± 0.067 | 1.58 ± 0.097 | 7.04 ± 0.45 | 3.38 ± 0.86 | 5.94 ± 0.37 | 2.17 ± 0.057 | 2.72 ± 0.21 | 2.56 ± 0.26 | 4.45 ± 0.91
7 | MKQQIQLRRREVDETADLPAELPPLLRRLYASRGVRSAQELERSVKGMLPWQQLSGVEKAVEILYNAFREGTRIIVVGDFDADGATSTALSVLAMRSLGCSNIDYLVPNRFEDGYGLSPEVVDQAHARGAQLIVTVDNGISSHAGVEHARSLGIPVIVTDHHLPGDTLPAAEAIINPNLRDCNFPSKSLAGVGVAFYLMLALRTFLRDQGWFDERNIAIPNLAELLDLVALGTVADVVPLDANNRILTWQGMSRIRAGKCRPGIKALLEVANRDAQKLAASDLGFALGPRLNAAGRLDDMSVGVALLLCDNIGEARVLANELDALNQTRKEIEQGMQIEALTLCEKLERSRDTLPGGLAMYHPEWHQGVVGILASRIKERFHRPVIAFAPAGDGTLKGSGRSIQGLHMRDALERLDTLYPGMMLKFGGHAMAAGLSLEEDKFKLFQQRFGELVTEWLDPSLLQGEVVSDGPLSPAEMTMEVAQLLRDAGPWGQMFPEPLFDGHFRLLQQRLVGERHLKVMVEPVGGGPLLDGIAFNVDTALWPDNGVREVQLAYKLDINEFRGNRSLQIIIDNIWPI | 3.87 ± 1.1 | 2.23 ± 0.075 | 2.74 ± 0.093 | 2.07 ± 0.028 | 2.25 ± 0.044 | 3.89 ± 0.38 | 3.66 ± 0.65 | 4.42 ± 0.24 | 3.5 ± 0.59 | 2.11 ± 0.042 | 4.22 ± 0.25 | 2.33 ± 0.37
8 | MSFWKVAAAQYEPRKTSLTEQVAHHLEFVRAAARQQCQLLVFPSLSLLGCDYSRRALPAPPDLSLLDPLCYAATTWRMTIIAGLPVEYNDRFIRGIAVFAPWRKTPGIYHQSHGACLGRRSRTITVVDEQPQGMDMDPTCSLFTTGQCLGEPDLLASARRLQFFSHQYSIAVLMANARGNSALWDEYGRLIVRADRGSLLLVGQRSSQGWQGDIIPLR | – | – | – | – | – | – | – | – | – | – | 5.47 | –
